{
  "source": "patent US12569538B2",
  "about": "“DPEP-1 binding compositions and methods of use” (Arch Biopartners, Inc., priority 2015, dated 2026)",
  "key": {"tumor cell line": {"tested_on": "tumor cell line", "experiment": "Tumor burden in livers or lungs of animals injected with a tumor cell line", "type": "in vivo"}, "Human DPEP2": {"target": "T1, Human DPEP2 (Homo sapiens, UniProt Q9H4A9)", "T1 construct": "expressed in transfected cells; host or cells: Cos-1", "T1 sequence (Q9H4A9 33-463)": "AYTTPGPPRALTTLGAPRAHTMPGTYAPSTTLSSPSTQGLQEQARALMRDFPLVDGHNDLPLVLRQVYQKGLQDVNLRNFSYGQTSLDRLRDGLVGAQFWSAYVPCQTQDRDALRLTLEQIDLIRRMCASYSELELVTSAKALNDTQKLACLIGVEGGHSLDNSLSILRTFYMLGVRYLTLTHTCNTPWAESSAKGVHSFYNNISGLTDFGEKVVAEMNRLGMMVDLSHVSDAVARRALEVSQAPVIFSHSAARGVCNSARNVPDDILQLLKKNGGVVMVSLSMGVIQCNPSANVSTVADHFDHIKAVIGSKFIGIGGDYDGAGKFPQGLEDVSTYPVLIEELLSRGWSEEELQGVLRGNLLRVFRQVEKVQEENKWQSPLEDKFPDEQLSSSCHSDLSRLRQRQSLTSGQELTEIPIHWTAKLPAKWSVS", "experiment": "Binding of Alexa-488 conjugated peptide to Cos-1 cells transfected with human DPEP2", "method": "(§1) Cos-1 cells were transiently transfected with either […] of human DPEP-1, DPEP2, or DPEP3 gene using lipofectamine 2000 (Invitrogen) reagent in OptiMEM medium. 24 hours after transfection, DPEP-1, DPEP2, or DPEP3 expressing cells were re-seeded on collagen coated (neutralized) wells in 24 well plates and allowed to grow for 24 hours at 37º° C. 24 hours after seeding, media was removed and cells were washed with PBS. Cells were blocked with FBS/NBSA/Tween in PBS for 30 minutes on ice. Cells were then washed with PBS and incubated with LSALT or GFE-1, conjugated with Alexa-488 (green). After incubation, cells were washed with PBS and stained with DAPI for 5 minutes on ice. Cells were then washed with PBS and fixed using 4% paraformaldehyde and immunofluorescence microscopy was performed to assess binding. Representative photomicrographs are shown for each experimental condition (n=3) in FIG. 6A. Proteins from DPEP-1. DPEP2 and DPEP3 transfected cells were isolated after 48 hours using octyl-glucoside/RIPA lysis buffer and western blot analysis was performed to assess DPEP-1, DPEP2 and DPEP3 protein expression using specific antibodies; DPEP-1 antibody (Sigma), DPEP2 (Abcam) and DPEP3 (Santacruz). Blots were stripped and reprobed with an anti-P-actin."}, "[1]": {"target": "T2, renal rat membrane dipeptidase (DPEP-1) (Rattus norvegicus, UniProt P31430)", "T2 construct": "expressed in transfected cells; host or cells: Cos-7", "T2 sequence (P31430 17-384)": "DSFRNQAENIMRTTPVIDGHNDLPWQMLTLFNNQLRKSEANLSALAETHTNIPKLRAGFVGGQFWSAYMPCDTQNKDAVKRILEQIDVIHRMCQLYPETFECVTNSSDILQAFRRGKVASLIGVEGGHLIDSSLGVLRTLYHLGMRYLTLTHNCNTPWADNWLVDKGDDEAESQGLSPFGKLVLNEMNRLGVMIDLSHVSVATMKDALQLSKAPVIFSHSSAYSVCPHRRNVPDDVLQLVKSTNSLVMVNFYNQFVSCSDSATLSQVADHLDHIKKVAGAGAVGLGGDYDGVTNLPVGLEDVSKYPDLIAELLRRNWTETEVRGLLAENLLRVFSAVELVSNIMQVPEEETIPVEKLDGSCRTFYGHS", "experiment": "Peptide binding to Cos-7 cells transfected with rat DPEP-1, flow cytometry", "conditions": "rat DPEP-1 transfected Cos-7 cells; Alexa-488 conjugated peptide on ice 30 minutes", "method": "Cos-7 cells were transiently transfected with 5∧g of renal rat membrane dipeptidase (DPEP-1) plasmid using lipofectamine2000 (Invitrogen) reagent. 48 hours after transfection, cells were incubated with LSALT conjugated to Alexa-488 (green) on ice for 30 minutes. Cells were washed and flow cytometry was performed to assess binding Shown are single parameter histographs for each experimental condition (n=2)."}, "[2]": {"tested_on": "B16-F10 murine melanoma cells", "experiment": "B16-F10 melanoma lung metastasis, syngeneic model", "type": "in vivo, C57-BL6 mice", "conditions": "1 mM peptide intravenous 5 minutes before 100,000 B16-F10 cells; lungs harvested after 2 weeks", "method": "8-10 weeks old C57-BL6 mice (Charles River) were injected intravenously with 100,000 B16-F10 murine melanoma cells 5 minutes after the injection of either LSALT or GFE-1 peptide (1 mM) via intravenous tail injection. Animals were sacrificed after 2 weeks and lungs were harvested. Tissues were processed for histology as described before and bematoxylin-eosin staining was performed to assess tumor burden."}, "Human DPEP-3": {"target": "T3, Human DPEP-3 (Homo sapiens, UniProt Q9H4B8)", "T3 construct": "expressed in transfected cells; host or cells: Cos-1", "T3 sequence (Q9H4B8 36-463)": "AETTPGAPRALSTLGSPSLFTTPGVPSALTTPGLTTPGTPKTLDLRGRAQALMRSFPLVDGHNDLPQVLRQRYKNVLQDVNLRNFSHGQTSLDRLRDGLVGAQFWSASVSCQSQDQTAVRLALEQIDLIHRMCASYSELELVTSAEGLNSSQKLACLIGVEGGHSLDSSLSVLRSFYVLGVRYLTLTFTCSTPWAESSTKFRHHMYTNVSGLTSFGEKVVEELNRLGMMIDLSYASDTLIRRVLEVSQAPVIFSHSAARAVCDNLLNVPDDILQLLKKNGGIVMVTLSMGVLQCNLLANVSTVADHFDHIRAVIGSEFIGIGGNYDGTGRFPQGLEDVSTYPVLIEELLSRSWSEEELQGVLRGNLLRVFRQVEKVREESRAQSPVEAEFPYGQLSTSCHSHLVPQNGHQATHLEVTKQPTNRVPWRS", "experiment": "Binding of Alexa-488 conjugated peptide to Cos-1 cells transfected with human DPEP3", "method": "as §1"}, "[3]": {"target": "T4, human membrane dipeptidase (DPEP-1) (Homo sapiens, UniProt P16444)", "T4 construct": "expressed in transfected cells; host or cells: Cos-1 (protein lysate, octylglucoside)", "T4 sequence (P16444 17-385)": "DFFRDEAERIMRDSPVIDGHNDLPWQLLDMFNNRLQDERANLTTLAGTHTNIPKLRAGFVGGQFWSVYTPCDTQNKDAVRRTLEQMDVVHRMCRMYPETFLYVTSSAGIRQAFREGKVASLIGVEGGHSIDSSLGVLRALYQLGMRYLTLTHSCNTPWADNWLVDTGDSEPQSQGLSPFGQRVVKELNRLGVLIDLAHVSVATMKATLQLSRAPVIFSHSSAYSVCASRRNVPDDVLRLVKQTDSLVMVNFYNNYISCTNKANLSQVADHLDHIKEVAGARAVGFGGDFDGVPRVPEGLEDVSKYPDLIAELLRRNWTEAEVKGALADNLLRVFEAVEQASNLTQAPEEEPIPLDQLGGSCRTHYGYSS", "experiment": "Membrane dipeptidase enzyme activity assay, fluorimetric detection of D-Phe from Gly-D-Phe", "type": "biochemical", "conditions": "protein from human DPEP-1 transfected Cos-1 cells; Gly-D-Phe substrate, 37° C., 3 hours", "method": "Cos-1 cells were transiently transfected with […] of human membrane dipeptidase (DPEP-1) plasmid using lipofectamine 2000 (Invitrogen) reagent. 48 hours after transfection, media was removed and cells were washed with PBS. Proteins were isolated using octylglucoside in the absence of protease inhibitors. Membrane dipeptidase assay and the fluorimetric detection of D-Phe was performed exactly as described by Heywood and Hooper previously. In brief, proteins were first incubated with membrane dipeptidase substrate Gly-D-Phe either in the presence or absence of LSALT or GFE-1 peptide at 37° C. for 3 hours. The fluorescence signal generated from the conversion of D-Phe to […] in the presence of D-aminoacidoxidase and peroxidase was measured using a fluorescence plate reader."}, "rat DPEP-1": {"target": "T5, rat DPEP-1 (Rattus norvegicus, UniProt P31430)", "T5 construct": "expressed in transfected cells; host or cells: Cos-1", "T5 sequence (P31430 17-384)": "as the sequence (P31430 17-384) above", "experiment": "Binding of Alexa-488 conjugated peptide to Cos-1 cells transfected with rat DPEP-1 (immunofluorescence)", "conditions": "Cos-1 cells transiently transfected with rat DPEP-1 cDNA, 30 minutes on ice", "method": "(§2) Cos-1 cells were transiently transfected with either 3 or 5|ig of membrane dipeptidase (DPEP-1) cDNA corresponding to the rat (Shown in FIG. 5A) or human DPEP-1 (Shown in FIG. 5B) gene using lipofectamine 2000 (Invitrogen) reagent in OptiMEM medium 24 hours after transfection, DPEP-1 expressing cells were re-seeded on collagen coated (neutralized) wells in 24 well plates and allowed to grow for 24 hours at 37 °C. 24 hours after seeding, media was removed and cells were washed with PBS. Cells were blocked with FBS/NBSA/Tween in PBS for 30 minutes on ice. Cells were then washed with PBS and incubated with Alexa-488 (green) conjugated LSALT, GFE-1, control peptide or DPEP-1 antibody (1/100) (Sigma) on ice for 30 minutes. […] After incubation, cells were washed with PBS and treated with 10 mg/ml biotin transfer peptide (LSALT, GFE-1 or Control Peptide (KGAL)] for 10 minutes. Cells were then washed with PBS and biotin transfer was enabled by UV activation of the aryl azide groups for 15 minutes at 363 nm. Residual fluid was removed and monolayers were lysed either with octyl-glucoside/RIPA or 8M urea. Isolated supernatants were rotated with […] of neutr-avidin agarose beads at 4° C. for 24 hours. Beads were washed with corresponding buffers, boiled in Laemmli buffer and analyzed by western blot using a DPEP-1 specific antibody (Proteintech)."}, "human DPEP-1": {"target": "T6, human DPEP-1 (Homo sapiens, UniProt P16444)", "T6 construct": "expressed in transfected cells; host or cells: Cos-1", "T6 sequence (P16444 17-385)": "T4 sequence (P16444 17-385)", "experiment": "Binding of Alexa-488 conjugated peptide to Cos-1 cells transfected with human DPEP-1 (immunofluorescence, biotin transfer)", "conditions": "Cos-1 cells transiently transfected with human DPEP-1 cDNA, 30 minutes on ice", "method": "as §2"}, "[4]": {"tested_on": "serum cytokines in response to LPS", "experiment": "Plasma cytokine levels after LPS, Luminex Cytokine Arrays", "type": "in vivo, SCID mice", "conditions": "LPS 0.5 mg/kg intraperitoneal 5 minutes prior to intravenous peptide; plasma at 4 hours", "method": "6-8 weeks old SCID mice were given an intraperitoneal injection of LPS (0.5 mg/kg) 5 minutes prior to intravenous injection of LSALT peptide or a control peptide. 4 hours following injection of LPS, blood was collected by cardiac puncture and changes in plasma cytokine levels were assessed using Luminex Cytokine Arrays. Bar graphs show the levels of different inflammatory mediators released in the plasma in the presence or absence of LSALT peptide and control peptide.\n6-8 weeks old SCID mice were given an intraperitoneal injection of LPS (0.5 mg/kg) 5 minutes prior to intravenous injection of LSALT peptide or a control peptide. 4 hours following injection of LPS, blood was collected by cardiac puncture and changes in plasma cytokine levels were assessed using Luminex Cytokine Arrays. Bar graphs show the level of the anti-inflammatory cytokine IL-10 released in the plasma in LSALT peptide or control peptide in two independent experiments."}, "[5]": {"tested_on": "neutrophil adhesion in the hepatic sinusoids", "experiment": "Neutrophil adhesion in hepatic sinusoids after LPS, intravital microscopy", "type": "in vivo, LysMeGFP mice", "conditions": "for neutrophil adhesion in the hepatic sinusoids in the presence of LPS: 1 mM peptide intravenous 5 minutes after 0.5 mg/kg LPS intraperitoneal, liver imaged after 3 hours", "method": "Six to ten week old LysMeGFP mice were injected with 1 mM dose of LSALT or GFE-1 peptides (intravenous) 5 minutes after the injection of 0.5 mg/kg of lipopolysaccharide (intraperitoneal). After 3 hours, animals were injected with ketamine and xylazine to provide general anesthesia. Fluorescently conjugated F4/80 and PECAM-1 antibodies were then administered via jugular vein cannulation and intravital spinning disk confocal microscopy was performed. The livers were imaged for an hour and the number of neutrophils were counted at different time points. Neutrophils which were stationary for >30 seconds in the liver sinusoids were counted as adherent cells. Data are representative of three independent experiments. An unpaired 2-tailed student's t-test was performed comparing LSALT, GFE-1 or control treated group against the LPS treated group (*p<0.05)."}, "[6]": {"target": "T2, renal rat membrane dipeptidase (DPEP-1)", "experiment": "Peptide binding to Cos-7 cells transfected with rat DPEP-1, immunofluorescence microscopy", "conditions": "rat DPEP-1 transfected Cos-7 cells; fluorescently conjugated peptide on ice 30 minutes", "method": "Cos-7 cells were transiently transfected with […] of renal rat membrane dipeptidase (DPEP-1) plasmid using lipofectamine 2000 (Invitrogen) reagent. 48 hours after transfection, media was removed and cells were washed with PBS. Cells were incubated with LSALT conjugated with Alexa-488 (Green), GFE-1 peptide conjugated with Alexa-568 (Red) or control peptide conjugated with Alexa-488 (Green) on ice for 30 minutes. Cells were washed and fixed using 4% paraformaldehyde and immunofluorescence microscopy was performed to assess binding. Shown are representative photomicrographs of each experimental condition (n=2)."}, "DPEP-1": {"tested_on": "DPEP-1", "conditions": "cited from earlier work"}},
  "data": [
    {"sequence": "LSALTPSPSWLKYKAL (listed as Homo sapiens)", "values": [
      {"measurement": "tumor burden in the livers or lungs", "setting": "tumor cell line", "value": "dramatically reduce tumor burden"},
      {"measurement": "binding to human DPEP2 in vitro", "setting": "Human DPEP2", "value": "do not Bind"},
      {"measurement": "binding to Cos-7 cells with expression of DPEP-1 (flow cytometry)", "setting": "[1]", "value": "enhanced the binding"},
      {"measurement": "melanoma-lung metastasis", "setting": "[2]", "value": "Inhibits"},
      {"measurement": "binding to human DPEP-3 in vitro", "setting": "Human DPEP-3", "value": "do not Bind"},
      {"measurement": "inhibition of membrane dipeptidase enzyme activity", "setting": "[3]", "value": "does not inhibit"},
      {"measurement": "binding to rat DPEP-1", "setting": "rat DPEP-1", "value": "Bonds"},
      {"measurement": "binding to human DPEP-1", "setting": "human DPEP-1", "value": "Bonds"},
      {"measurement": "levels of serum cytokines (inflammatory mediators) in response to LPS", "setting": "[4]", "value": "attenuates the levels"},
      {"measurement": "production of the anti-inflammatory mediator IL-10 in response to LPS", "setting": "[4]", "value": "increases the production"},
      {"measurement": "neutrophil adhesion in the hepatic sinusoids in the presence of LPS", "setting": "[5]", "value": "inhibit neutrophil adhesion"},
      {"measurement": "neutrophil recruitment to the liver", "setting": "[5]; mouse model of sepsis", "value": "reduced neutrophil recruitment"},
      {"measurement": "binding to Cos-7 cells with expression of DPEP-1 (immunofluorescence microscopy)", "setting": "[6]", "value": "enhanced the binding"}
    ]},
    {"sequence": "CGFECVRQCPERC (listed as Homo sapiens) [GFE-1, reference compound]", "values": [
      {"measurement": "binding to human DPEP2 in vitro", "setting": "Human DPEP2", "value": "do not Bind"},
      {"measurement": "binding to human DPEP-3 in vitro", "setting": "Human DPEP-3", "value": "do not Bind"},
      {"measurement": "neutrophil adhesion in the hepatic sinusoids in the presence of LPS", "setting": "[5]", "value": "inhibit neutrophil adhesion"},
      {"measurement": "binding to Cos-7 cells with expression of DPEP-1 (immunofluorescence microscopy)", "setting": "[6]", "value": "enhanced the binding"},
      {"measurement": "DPEP-1 binding activity in lung microvasculature", "setting": "DPEP-1", "value": "having DPEP-1 binding activity"}
    ]},
    {"sequence": "CGFELETC (listed as Homo sapiens) [GFE-2]", "values": [
      {"measurement": "DPEP-1 binding activity in lung microvasculature", "setting": "DPEP-1", "value": "having DPEP-1 binding activity"}
    ]}
  ]
}
